This is an account of results in patent publication US20110263451A1, “BIOLOGICAL MARKERS PREDICTIVE OF RHEUMATOID ARTHRITIS RESPONSE TO LYMPHOTOXIN ANTAGONISTS” (GENENTECH, INC, priority 2008, published 2011).

Experiment [1] deals with solLTαβ. In words: solLTαβ levels in serum of CIA mice (murine LTαβ ECLA). The settings on record: 6 mg/kg s.c. three times weekly, treated for 11 days, FIG. 4A. It is filed as in vivo, mouse (DBA-1J). The method, then:
(§1) Soluble mouse LTαβ was measured using streptavidin coated 96-Well Microtiter plates (Meso Scale Discovery). Wells were then blocked with 150 uL of PBS containing 5% bovine serum albumin for 1-2 hours. Twenty-five uL per well of 1 μg/ml murine LTβR-Fc-biotin (R&D Systems) diluted in PBS/0.05% Tween® was then incubated with the blocked plate for 30 minutes. The wells were washed 6× with PBS containing 0.05% Tween®-20 (PBS/Tween®) and a titration curve of recombinant mouse LTα1β2 (R&D Systems), controls and unknown test samples diluted in high salt assay diluent (PBS, 0.5% BSA, 0.05% Tween® 20, 10 ppm Proclin, 5 mM EDTA, 0.2% BGG, 0.25% CHAPS+3.5 mM NaCl pH 7.4) were added at 25 μl/well and incubated for 2 hours. The wells were washed 6× with PBS/Tween® and an anti-LTα monoclonal antibody (N3EV) (Genentech) labeled with SULFO-TAG® NHS (Meso Scale Discovery) was diluted to 3 ug/ml in assay diluent and added to the wells at 25 μl/well for 1 hour. The plate was washed with wash buffer 6× and 150 μl/well of Read Buffer T (Meso Scale Discovery) diluted 1:2 in H20 was added to the plate. The plate was immediately read on an MA6000 SECTOR™ Imager (Meso Scale Discovery). A weighted 4-parameter fit curve was plotted using XLFit (Guildford, UK) from the resulting standard curve values and unknown concentrations were extrapolated. […]

The subject of experiment [2] is solLTαβ. In words: solLTαβ levels in serum of EAE mice (murine LTαβ ECLA). It is filed as in vivo, mouse (SJL/J). The conditions noted are these: 6 mg/kg s.c. three times a week, FIG. 3. The method, then:
as §1, with “The wells were washed 6× with PBS/Tween® and an anti-LTα monoclonal antibody (N3EV) (Genentech) labeled with SULFO-TAG® NHS (Meso Scale Discovery) was diluted to 3 ug/ml in assay diluent and added to the wells at 25 μl/well for 1 hour.” left out, “Discovery).” for “Discovery). A weighted 4-parameter fit curve was plotted using XLFit (Guildford, UK) from the resulting standard curve values and unknown concentrations were extrapolated.”
Female SJL/J mice were immunized intradermally at the base of the tail with 200 μl of emulsion containing 150 μg of peptide PLP 139-151 in 100 μl of PBS and 100 μl of CFA. […] Animals were evaluated daily for clinical signs using the same grading system as for the transgenic mice.

B1: muLTβR-Fc: recombinant murine LTβ receptor conjugated to an immunoglobulin Fc region (murine IgG2a Fc) (protein)
chain: QLVPPYRIENQTCWDQDKEYYEPMHDVCCSRCPPGEFVFAVCSRSQDTVCKTCPHNSYNEHWNHLSTCQLCRPCDIVLGFEEVAPCTSDRKAECRCQPGMSCVYLDNECVHCEEERLVLCQPGTEAEVTDEIMDTDVNCVPCKPGHFQNTSSPRARCQPHTRCEIQGLVEAAPGTSYSDTICKNPPEPGAML
modifications: left off: a dimerising Fc or GST
On to B1, for which the “solLTαβ levels in serum” value with solLTαβ [1] and in the experiment with solLTαβ [2] was “Elevated” in each case.
